This is an account of results in PMC9499943 (Nature Communications, 2022).

What all share (assay): BLI
Common to all, as to conditions: both partners purified

The target of test [1] is His-tagged RBD (RBD-His) protein of SARS-CoV-2 (SARS-CoV-2, wild type (Wuhan-Hu-1 …, UniProt P0DTC2)).
In test [2] the target is Fc-tagged wild-type RBD (RBD-Fc) (SARS-CoV-2, UniProt P0DTC2).
Test [3] concerns the target His-tagged RBD (RBD-His) protein of SARS-CoV-2 (SARS-CoV-2, wild type (Wuhan-Hu-1 …, UniProt P0DTC2)). The source holds these as a separate data set.

B1: CoV2-06 (antibody, V domains shown)
VH: QVELQESGPGLVKPSGTLSLTCAVSGGSISSNNWWTWVRQPPGKGLEWIGEIHHSGGTNYNPSLKSRVTMSVDKSKNQFSLNLYSVTAADTAVYYCTRDRAGGTYSGFDFWGQGTLVTVSS
VL: QAVVTQPASVSGSPGQSITISCTGTSSDVGGYNYVSWYQQHPGKAPKLMIYDVSNRPSGVSNRFSGSKSGNTASLTISGLQAEDEADYYCSSYTSSSTVVFGGGTKVTVL
Take B1: in test [1], the Kd was found to be 4.14 nM, the dissociation rate constant (koff) was 0.000695 s⁻¹ and the kon amounted to 168000 M⁻¹ s⁻¹.

B2: CoV2-06 (antibody, V domains shown)
VH: QVELQESGPGLVKPSGTLSLTCAVSGGSISSNNWWTWVRQPPGKGLEWIGEIHHSGGTNYNPSLKSRVTMSVDKSKNQFSLNLYSVTAADTAVYYCTRDRAGGTYSGFDFWGQGTLVTVSS
VL: QAVVTQPASVSGSPGQSITISCTGTSSDVGGYNYVSWYQQHPGKAPKLMIYDVSNRPSGVSNRFSGSKSGNTASLTISGLQAEDEADYYCSSYTSSSTVVFGGGTKVTVL
Molecule B2 came in with an IC50 in test [2] of 39.8 nM. The same molecule gave an other in test [3] of 46 fold.

B3: CoV2-14 (antibody, V domains shown)
VH: EVQLQQSGPGLVKPSQTLSLTCAISGDSVSSNSAAWNWIRQSPSRGLEWLGRTYYRSKWYNDYAVSVKSRITINPDTSKNQFSLQLNSVTPEDTAVYYCAREEQQLVHDYYYYGMDVWGQGTMVTVSS
VL: QAVVTQPASVSGSPGQSITISCTGTSSDIGAYNYISWYQQHPGKAPKLIIYEVSNRPSGISYRFSGSKSGNTASLTISGLQAEDEANYYCSSYAGSISFGGGTKVTVL
For the molecule B3, in test [1], the Kd came to 1.18 nM, the koff was found to be 0.000895 s⁻¹ and the kon was found to be 761000 M⁻¹ s⁻¹.

B4: CoV2-14 (antibody, V domains shown)
VH: EVQLQQSGPGLVKPSQTLSLTCAISGDSVSSNSAAWNWIRQSPSRGLEWLGRTYYRSKWYNDYAVSVKSRITINPDTSKNQFSLQLNSVTPEDTAVYYCAREEQQLVHDYYYYGMDVWGQGTMVTVSS
VL: QAVVTQPASVSGSPGQSITISCTGTSSDIGAYNYISWYQQHPGKAPKLIIYEVSNRPSGISYRFSGSKSGNTASLTISGLQAEDEANYYCSSYAGSISFGGGTKVTVL
For the molecule B4, the IC50 in test [2] was found to be 10.6 nM. The same molecule registered an other in test [3] of 2 fold.
